The source of these data is patent publication US20060177862A1 (CAMBRIDGE ANTIBODY TECHNOLOGY, published 2006).

The assay addresses T1, TGFβ-1 (UniProt P01137 279-390).
T1 construct: Antigen coated on ELISA plates at 1 µg/ml
The assay can be described thus: method not stated; value listed for the panel of existing phage-display scFv.

T1 sequence (P01137 279-390 limits assumed): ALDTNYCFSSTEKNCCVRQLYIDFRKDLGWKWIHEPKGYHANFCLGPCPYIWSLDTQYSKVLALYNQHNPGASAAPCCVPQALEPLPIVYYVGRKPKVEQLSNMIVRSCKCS

B1: ScFv 1 (scFv, V domains shown)
VH: EVQLVESGGGLVQPGGSLRLSCAASGYAFTNYLIEWVRQAPGKGLEWVGVINPGSGGSNYNEKFKGRATISADNSKNTLYLQMNSLRAEDTAVYYCARSGGFYFDYWGQGTLVTVSS
VL: DIQMTQSPSSLSASVGDRVTITCRASQSVLYSSNQKNYLAWYQQKPGKAPKLLIYWASTRESGVPSRFSGSGSGTDFTLTISSLQPEDFATYYCHQYLSSDTFGQGTKVEIK
B1 yielded a Kd of 8 nM.
